Laboratory results from patent publication US20230277632A1, “MODIFIED PlySs2 LYSINS AND ANTIBIOTIC COMBINATIONS FOR USE AGAINST GRAM-POSITIVE BACTERIA” (ContraFect Corporation, priority 2020, published 2023).
“And” between values parts separate entries of the source, which are not always exact repeats. Identical values can stand only once.

Tests used:
[1] = tested on: S. aureus isolates; assay: In vivo efficacy of daptomycin in combination with pp296, neutropenic murine thigh infection model; details: 24 h
Procedure: (§1) Study animals: Specific pathogen-free female ICR mice (average body weight 23 grams) were provided food and water ad libitum and maintained and used in accordance with National Research Council recommendations. Animals were allowed a 48-hour post-delivery acclimation period before every experiment. Mice were rendered transiently neutropenic by injection of cyclophosphamide via intraperitoneal (IP) route at a dose of 150 mg/kg of body weight at four days before bacterial inoculation and 100 mg/kg of body weight at one day before bacterial inoculation.
(§2) Neutropenic Thigh Infection Model: Two transfers of the bacterial isolates were performed onto trypticase soy agar plates with 5% sheep blood and placed into an incubator at 37° C. for approximately 24 hours. After an 18-24 hour incubation of the second transfer, a suspension of approximately 10^7 CFU/mL was made for inoculation. Final bacterial inoculum concentrations were confirmed by serial dilution and plating techniques. Thigh infection with the test isolate was produced by intramuscular injection of 0.1 mL of the bacterial inoculum into each thigh of the mice. Antimicrobial therapy was initiated 2 hours after bacterial inoculation, as detailed below.
(§3) Untreated control mice (n=3) were sacrificed just prior to antibiotic administration and 24 hours after bacterial inoculation. Animals sacrificed prior to antibiotic initiation served as 0-hour control animals, representing initial bacterial burden. […] Treatment mice (n=3/group) were sacrificed at the end of the 24 hour treatment period. After sacrifice, both thighs for each mouse were homogenized in normal saline. Serial dilutions were plated on Trypticase soy agar with 5% sheep blood and incubated for 18 to 20 hours at 37.0 to determine the CFU. Efficacy was calculated as the change in bacterial density obtained in treated mice after 24 hours compared with the numbers in the 0-hour control animals. Bacterial density represents the average CFU determined from 3 mice, each contributing 2 thighs.
For the 4 S. aureus isolates HPV107, CAIRD426, JMI227, and NRS123, the following sub-therapeutic daptomycin dosage regimen was adopted: 0.76 mg/kg at 0 hrs, 0.4 mg/kg at 4 hrs, 0.24 mg/kg at 10 hrs, and 0.12 mg/kg at 17 hrs.

[2] = tested on: S. aureus isolates; assay: In vivo efficacy of vancomycin in combination with pp296, neutropenic murine thigh infection model; details: 24 h
Procedure: as §1
as §2, with “below. […]” for “below.”
as §3

B1: pp296: modified PlySs2 lysin, SEQ ID NO: 6: L92W, V104S, V128T, Y137S, Y164K, N184D, S198Q (protein)
chain: MTTVNEALNNVRAQVGSGVSVGNGECYALASWYERMISPDATVGLGAGVGWVSGAIGDTISAKNIGSSYNWQANGWTVSTSGPFKAGQIVTWGATPGNPYGHVSIVEAVDGDRLTILEQNYGGKRYPTRNYYSAASSRQQVVHYITPPGTVAQSAPNLAGSRSKRETGTMTVTVDALNVRRAPDTSGEIVAVYKRGEQFDYDTAIIDVNGYAWVSYIGGSGKRNYVATGATKDGKRFGNAWGTFK
mean bacterial density vs starting inoculum ([1]; pp296 0.5 mg/kg IV + sub-therapeutic daptomycin): 0.80±1.19 log10 CFU/thigh
mean bacterial density vs starting inoculum ([1]; pp296 50 mg/kg IV + sub-therapeutic daptomycin): −0.72±0.59 log10 CFU/thigh
average growth vs starting inoculum ([1]; pp296 50 mg/kg alone, 8 isolates (daptomycin study)): 1.36±1.35 log10 CFU/thigh
Replicate Log10 CFU/thigh data ([2]; ATCC2921, pp296 50 mg/kg alone, 50 mg/kg): 8.15 Log10 CFU/thigh (2×) and 8.58 Log10 CFU/thigh and 7.86 Log10 CFU/thigh and 6.81 Log10 CFU/thigh and 8.00 Log10 CFU/thigh
Replicate Log10 CFU/thigh data ([2]; CAIRD426, pp296 50 mg/kg alone (VAN 1.5 mg/kg study)): 5.41 Log10 CFU/thigh and 5.80 Log10 CFU/thigh and 7.92 Log10 CFU/thigh and 8.33 Log10 CFU/thigh and 4.90 Log10 CFU/thigh and 6.18 Log10 CFU/thigh
Replicate Log10 CFU/thigh data ([2]; CAIRD426, pp296 50 mg/kg alone, Run #1, 50 mg/kg): 6.04 Log10 CFU/thigh and 4.62 Log10 CFU/thigh and 5.46 Log10 CFU/thigh and 4.94 Log10 CFU/thigh and 6.53 Log10 CFU/thigh and 6.00 Log10 CFU/thigh
Replicate Log10 CFU/thigh data ([2]; CAIRD426, pp296 50 mg/kg alone, Run #2, 50 mg/kg): 8.14 Log10 CFU/thigh and 7.97 Log10 CFU/thigh and 4.83 Log10 CFU/thigh and 4.79 Log10 CFU/thigh and 5.84 Log10 CFU/thigh and 6.07 Log10 CFU/thigh
Replicate Log10 CFU/thigh data ([2]; HPV107, pp296 50 mg/kg alone (VAN 1.5 mg/kg study)): 8.08 Log10 CFU/thigh and 8.00 Log10 CFU/thigh and 7.05 Log10 CFU/thigh and 7.21 Log10 CFU/thigh and 4.64 Log10 CFU/thigh and 6.57 Log10 CFU/thigh
Replicate Log10 CFU/thigh data ([2]; HPV107, pp296 50 mg/kg alone, Run #1, 50 mg/kg): 5.08 Log10 CFU/thigh and 4.96 Log10 CFU/thigh and 5.36 Log10 CFU/thigh and 6.45 Log10 CFU/thigh and 6.14 Log10 CFU/thigh and 6.78 Log10 CFU/thigh
Replicate Log10 CFU/thigh data ([2]; HPV107, pp296 50 mg/kg alone, Run #2, 50 mg/kg): 7.35 Log10 CFU/thigh and 8.03 Log10 CFU/thigh (2×) and 6.53 Log10 CFU/thigh and 7.04 Log10 CFU/thigh and 6.30 Log10 CFU/thigh
Replicate Log10 CFU/thigh data ([2]; JMI227, pp296 50 mg/kg alone, 50 mg/kg): 5.01 Log10 CFU/thigh and 6.67 Log10 CFU/thigh and 7.71 Log10 CFU/thigh and 8.05 Log10 CFU/thigh and 4.72 Log10 CFU/thigh and 7.34 Log10 CFU/thigh
Replicate Log10 CFU/thigh data ([2]; JMI4789, pp296 50 mg/kg alone, 50 mg/kg): 5.02 Log10 CFU/thigh and 5.19 Log10 CFU/thigh and 7.69 Log10 CFU/thigh and 8.08 Log10 CFU/thigh and 5.11 Log10 CFU/thigh and 6.15 Log10 CFU/thigh
Replicate Log10 CFU/thigh data ([2]; NRS100, pp296 50 mg/kg alone (VAN 1.5 mg/kg study)): 4.79 Log10 CFU/thigh and 5.29 Log10 CFU/thigh and 4.72 Log10 CFU/thigh and 4.90 Log10 CFU/thigh (2×) and 5.73 Log10 CFU/thigh
Replicate Log10 CFU/thigh data ([2]; NRS100, pp296 50 mg/kg alone, Run #1, 50 mg/kg): 4.75 Log10 CFU/thigh and 4.81 Log10 CFU/thigh and 4.78 Log10 CFU/thigh and 4.83 Log10 CFU/thigh and 4.48 Log10 CFU/thigh and 4.70 Log10 CFU/thigh
Replicate Log10 CFU/thigh data ([2]; NRS100, pp296 50 mg/kg alone, Run #2, 50 mg/kg): 4.62 Log10 CFU/thigh and 4.73 Log10 CFU/thigh and 4.66 Log10 CFU/thigh and 4.41 Log10 CFU/thigh and 5.94 Log10 CFU/thigh and 6.34 Log10 CFU/thigh
Replicate Log10 CFU/thigh data ([2]; NRS123, pp296 50 mg/kg alone, 50 mg/kg): 6.53 Log10 CFU/thigh and 8.01 Log10 CFU/thigh and 8.08 Log10 CFU/thigh and 7.48 Log10 CFU/thigh and 8.41 Log10 CFU/thigh and 8.38 Log10 CFU/thigh
Replicate Log10 CFU/thigh data ([2]; NRS217, pp296 50 mg/kg alone (VAN 1.5 mg/kg study)): 7.46 Log10 CFU/thigh and 7.45 Log10 CFU/thigh and 4.60 Log10 CFU/thigh and 4.79 Log10 CFU/thigh and 7.49 Log10 CFU/thigh and 6.72 Log10 CFU/thigh
Replicate Log10 CFU/thigh data ([2]; NRS217, pp296 50 mg/kg alone, Run #1, 50 mg/kg): 4.75 Log10 CFU/thigh and 6.79 Log10 CFU/thigh and 5.06 Log10 CFU/thigh and 4.93 Log10 CFU/thigh and 5.72 Log10 CFU/thigh and 5.76 Log10 CFU/thigh
Replicate Log10 CFU/thigh data ([2]; NRS217, pp296 50 mg/kg alone, Run #2, 50 mg/kg): 5.35 Log10 CFU/thigh and 5.98 Log10 CFU/thigh and 6.08 Log10 CFU/thigh and 5.42 Log10 CFU/thigh and 4.32 Log10 CFU/thigh and 6.26 Log10 CFU/thigh
Replicate Log10 CFU/thigh data ([2]; isolate CAIRD426, pp296 50 mg/kg alone, VAN 5 mg/kg study): 8.95 Log10 CFU/thigh and 7.96 Log10 CFU/thigh and 7.74 Log10 CFU/thigh and 8.34 Log10 CFU/thigh
mean bacterial density vs starting inoculum ([2]; pp296 0.5 mg/kg IV + vancomycin 1.5 mg/kg SC, 4 isolates): 0.92±1.24 log10 CFU/thigh
mean bacterial reduction vs starting inoculum ([2]; pp296 0.5 mg/kg IV + vancomycin 3 mg/kg q12h SC, 8 isolates): −0.26±1.10 log10 CFU/thigh
mean bacterial reduction vs starting inoculum ([2]; pp296 0.5 mg/kg IV + vancomycin 5 mg/kg SC, 4 isolates): −0.59±0.79 log10 CFU/thigh
mean bacterial density vs starting inoculum ([2]; pp296 50 mg/kg IV + vancomycin 1.5 mg/kg SC, 4 isolates): −0.61±0.82 log10 CFU/thigh
mean bacterial reduction vs starting inoculum ([2]; pp296 50 mg/kg IV + vancomycin 3 mg/kg q12h SC, 8 isolates): −1.01±0.41 log10 CFU/thigh
mean bacterial reduction vs starting inoculum ([2]; pp296 50 mg/kg IV + vancomycin 5 mg/kg SC, 4 isolates): −0.85±0.54 log10 CFU/thigh
average growth vs starting inoculum ([2]; pp296 50 mg/kg alone, 4 isolates (VAN 1.5 mg/kg study)): 0.75±1.24 log10 CFU/thigh
average growth vs starting inoculum ([2]; pp296 50 mg/kg alone, 4 isolates (VAN 5 mg/kg study)): 1.44±1.43 log10 CFU/thigh
average growth vs starting inoculum ([2]; pp296 50 mg/kg q24h IV alone, 8 isolates (VAN 3 mg/kg study)): 0.37±1.27 log10 CFU/thigh
